Data published in article PMC2630536.

Columns and labels:
[1] = target: fluorescein-EGR-chloromethylketone-labeled thrombin (bovine) (bovine); assay: other fluorescence titration
TMEGF456 M388L = assay: SPR
TMEGF456 D349N = assay: SPR
TMEGF456 E357Q = assay: SPR
TMEGF456 Y358F = assay: SPR

Kd [1] [nM]	Substance	further results
57	TMEGF45 M388L (domain or fragment)	–
49	TMEGF45 D400E (domain or fragment)	–
43	TMEGF45 D349N (domain or fragment)	–
55	TMEGF45 E357Q (domain or fragment)	–
–	thrombin (PPACK-thrombin in the SPR; active thrombin in the protein C activation assay) (enzyme)	Kd (TMEGF456 M388L): 4.4 nM; Kd (TMEGF456 D349N): 4.2 nM; Kd (TMEGF456 E357Q): 5.2 nM; Kd (TMEGF456 Y358F): 2.6 nM
68	TMEGF45 wild type (domain or fragment)	–
